Laboratory results published in patent US20110281365A1 (Stanford University, published 2011).

T1: human FcεRIα protein (alpha chain of the high affinity IgE receptor) (human, UniProt P12319 26-201)
T1 construct: Purified soluble protein used in solution; The embodiments and claims speak of the extracellular region 1-176
T1 sequence (looked up): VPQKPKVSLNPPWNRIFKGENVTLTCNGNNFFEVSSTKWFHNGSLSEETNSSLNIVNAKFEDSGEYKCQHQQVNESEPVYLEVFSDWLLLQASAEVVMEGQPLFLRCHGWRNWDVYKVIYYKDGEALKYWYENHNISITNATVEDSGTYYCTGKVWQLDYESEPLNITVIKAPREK

B1: Alexa Fluor 488-labeled 367C IgE-Fc (human IgE-Fc Cε3-Cε4 C328A/K367C double mutant) (other)
chain: ADPAADSNPRGVSAYLSRPSPFDLFIRKSPTITCLVVDLAPSCGTVNLTWSRASGKPVNHSTRKEEKQRNGTLTVTSTLPVGTRDWIEGETYQCRVTHPHLPRALMRSTTKTSGPRAAPEVYAFATPEWPGSRDKRTLACLIQNFMPEDISVQWLHNEVQLPDARHSTTQPRKTKGSGFFVFSRLEVTRAEWEQKDEFICRAVHEAASPSQTVQRAVSVNPGKAADDDDKRYLDPAFLYKVRMNEDLGKPIPNPLLGLDSTRTGHHHHHH
modifications: Alexa Fluor 488 maleimide dye on Cys 367 (Dorrington and Bennich numbering)
notes: Expressed in insect cells; also called labeled IgE-Fc
B2: unlabeled wild type IgE-Fc (human IgE-Fc Cε3-Cε4) (other)
chain: ADPCADSNPRGVSAYLSRPSPFDLFIRKSPTITCLVVDLAPSKGTVNLTWSRASGKPVNHSTRKEEKQRNGTLTVTSTLPVGTRDWIEGETYQCRVTHPHLPRALMRSTTKTSGPRAAPEVYAFATPEWPGSRDKRTLACLIQNFMPEDISVQWLHNEVQLPDARHSTTQPRKTKGSGFFVFSRLEVTRAEWEQKDEFICRAVHEAASPSQTVQRAVSVNPGK
notes: also called unlabeled IgE-Fc; unlabeled IgE

Legend:
[1] = molecular target: T1, human FcεRIα protein (alpha chain of …); assay: fluorescence quenching receptor binding titration, 96-well plate
Method: Binding buffer conditions were optimized to improve reproducibility of the binding assay in a 96-well plate format.
(§1) Fluorescence Measurement. Samples were monitored by fluorescence using a Synergy 4 Fluorometer (BioTek) in black 96-well Costar fluorescence plates (Corning). […] The read-type for typical measurements was Endpoint. All measurements were recorded in duplicate.

[2] = molecular target: T1, human FcεRIα protein (alpha chain of …); assay: fluorescence quenching competition assay; competitor of 488-labeled 367C IgE-Fc for FcεRIα
Method: Initial experiments were conducted with unlabeled IgE-Fc as the competitor.
as §1

Binder	Kd [1] [nM]	EC50 [2] [nM]
B1	~22	–
B2	–	~75
